Results as given in paper PMC7170532.

Biological target: latent myostatin (human) (UniProt O14793)
Experiment: SEC-MALS; SRT SEC-500 column, 20 mM phosphate, 200 mM NaCl pH 6.8; latent myostatin alone; 94 kDa observed, 82 kDa calculated

Chain of latent myostatin (O14793 whole entry, looked up): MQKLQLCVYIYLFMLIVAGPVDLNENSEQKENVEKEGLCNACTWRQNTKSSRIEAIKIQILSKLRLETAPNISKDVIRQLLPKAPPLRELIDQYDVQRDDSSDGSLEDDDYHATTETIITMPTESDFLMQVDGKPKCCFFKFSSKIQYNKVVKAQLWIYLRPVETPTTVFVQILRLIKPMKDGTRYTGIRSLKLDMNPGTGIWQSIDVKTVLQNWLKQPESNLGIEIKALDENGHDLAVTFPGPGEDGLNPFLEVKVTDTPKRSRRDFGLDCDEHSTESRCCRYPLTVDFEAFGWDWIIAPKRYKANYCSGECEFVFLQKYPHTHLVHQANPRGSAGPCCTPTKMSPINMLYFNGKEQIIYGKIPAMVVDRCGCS

stoichiometry N: 2
Substance: latent myostatin (from UniProt O14793 267-375) (complex)
